In IntAct's records for PubMed 26387864:

B1: Mitochondrial intermembrane space import and assembly protein 40 (Homo sapiens), Q8N4Q1 (parent)
chain: MSYCRQEGKDRIIFVTKEDHETPSSAELVADDPNDPYEEHGLILPNGNINWNCPCLGGMASGPCGEQFKSAFSCFHYSTEEIKGSDCVDQFRAMQECMQKYPDLYPQEDEDEEEEREKKPAEQAEETAPIEATATKEEEGSS
B2: Calcium uptake protein 1, mitochondrial (Homo sapiens), Q9BPX6 (parent)
chain: MFRLNSLSALAELAVGSRWYHGGSQPIQIRRRLMMVAFLGASAVTASTGLLWKRAHAESPPCVDNLKSDIGDKGKNKDEGDVCNHEKKTADLAPHPEEKKKKRSGFRDRKVMEYENRIRAYSTPDKIFRYFATLKVISEPGEAEVFMTPEDFVRSITPNEKQPEHLGLDQYIIKRFDGKKISQEREKFADEGSIFYTLGECGLISFSDYIFLTTVLSTPQRNFEIAFKMFDLNGDGEVDMEEFEQVQSIIRSQTSMGMRHRDRPTTGNTLKSGLCSALTTYFFGADLKGKLTIKNFLEFQRKLQHDVLKLEFERHDPVDGRITERQFGGMLLAYSGVQSKKLTAMQRQLKKHFKEGKGLTFQEVENFFTFLKNINDVDTALSFYHMAGASLDKVTMQQVARTVAKVELSDHVCDVVFALFDCDGNGELSNKEFVSIMKQRLMRGLEKPKDMGFTRLMQAMWKCAQETAWDFALPKQ
partner: B1 chain
B3: Calcium uptake protein 1, mitochondrial (Homo sapiens), Q9BPX6 (parent)
chain: B2 chain

Variants of: B1
Conditions: with micu1_human MICU1, Q9BPX6

effect of a mutation on the interaction	Variant
disrupting interaction strength	C55S
with no effect	C53S
disrupting interaction strength	C4S;C53S;C55S

Variants of: B2
Conditions: with mia40_human CHCHD4, Q8N4Q1

effect of a mutation on the interaction	Variant
disrupting interaction strength	C463A

Variants of: B3
Conditions: with mcu_human MCU

effect of a mutation on the interaction	Variant
with no effect	C463S
